Test in all cases: scFv on yeast, soluble CXCL-SA; flow cytometry
The target in one experiment is five targets (of CK157).
Experiment [1] has as its target T1, ^NhCXCL1-SA^C (Groα/hCXCL1 35-107 fused to mouse serum albumin) (human; mouse, UniProt P09341 35-107; P07724 25-608).
T1 construct: soluble form; also called Groa
As to the method:
(§1) In brief, DNA plasmids encoding single protein binder clones were transformed into genetically modified Saccharomyces cerevisiae yeast cells (EBY100 strain) using Frozen-EZ Yeast Transformation II Kit (Zymo Research) and plated on selective SD-CAA solid agar media. Individual colonies were inoculated in 5 mL SD-SCAA cultures, grown to mid-log phase (0D600=2-5) in SD-CAA media at 30° C. with shacking (250 rpm). Cells were induced in galactose-containing SG-CAA media for 20 hours at 20° C. with shacking (250 rpm) as previously described (Angelini, A. et al. Protein Engineering and Selection Using Yeast Surface Display. Methods Mol Biol 1319, 3-36 (2015)). The binding assays were conducted in 96-well plates (Corning) containing 1×10⁴ induced cells per well. […] Yeast cells displaying protein binders were incubated with varying concentration of soluble CXC chemokine fusions (^NCXCL-SA^S) bearing the His6 tag and the primary chicken anti-c-myc epitope tag (1:1000) antibody (Gallus Immunotech) overnight at 4° C. with shaking (150 rpm). […] After primary incubation, cells were pelleted (2500× g for 5 min at 4° C.) and washed twice with 200 μL ice-cold PBSA buffer. Secondary labeling was performed with goat anti-chicken and mouse anti-His6 epitope tag antibodies conjugated to Alexa Fluor dyes at recommended dilutions.

For experiment [2], the target named is T2, ^NhCXCL5-SA^C (ENA-78/hCXCL5 44-114 fused to mouse serum albumin) (human; mouse, UniProt P42830 44-114; P07724 25-608).
T2 construct: soluble form
As to the method:
as §1

Experiment [3] deals with T3, ^NmCXCL1-SA^C (KC/mCXCL1 25-96 fused to mouse serum albumin) (mouse, UniProt P12850 25-96; P07724 25-608).
T3 construct: soluble form
The protocol: as §1

The target in experiment [4] is T4, ^NmCXCL2-SA^C (MIP-2/mCXCL2 28-100 fused to mouse serum albumin) (mouse, UniProt P10889 28-100; P07724 25-608).
T4 construct: soluble form
As to the method: as §1

The target in experiment [5] is T5, ^NmCXCL5-SA^C (LIX/mCXCL5 48-118 fused to mouse serum albumin) (mouse, UniProt P50228 48-118; P07724 25-608).
T5 construct: soluble form
As to the method:
as §1

Experiment [6] concerns the target T1, ^NhCXCL1-SA^C (Groα/hCXCL1 35-107 fused …). As to the method: as §1
The source holds these as a separate data set.

The target of experiment [7] is T6, ^NhCXCL2-SA^C (Groβ/hCXCL2 35-107 fused to mouse serum albumin) (human; mouse, UniProt P19875 35-107; P07724 25-608).
T6 construct: soluble form
The protocol: as §1

The target in experiment [8] is T7, ^NhCXCL3-SA^C (Groγ/hCXCL3 35-107 fused to mouse serum albumin) (human; mouse, UniProt P19876 35-107; P07724 25-608).
T7 construct: soluble form
The protocol:
as §1

Experiment [9] has as its target T8, ^NhCXCL4-SA^C (PF-4/hCXCL4 32-101 fused to mouse serum albumin) (human; mouse, UniProt P02776 32-101; P07724 25-608).
T8 construct: soluble form
As to the method:
as §1

Experiment [10] concerns the target T2, ^NhCXCL5-SA^C (ENA-78/hCXCL5 44-114 …). The protocol:
as §1
The source holds these as a separate data set.

For experiment [11], the target named is T9, ^NhCXCL6-SA^C (GCP-2/hCXCL6 43-114 fused to mouse serum albumin) (human; mouse, UniProt P80162 43-114; P07724 25-608).
T9 construct: soluble form
As to the method: as §1

The target in experiment [12] is T10, ^NhCXCL10-SA^C (IP-10/hCXCL10 22-98 fused to mouse serum albumin) (human; mouse, UniProt P02778 22-98; P07724 25-608).
T10 construct: soluble form
As to the method:
as §1

Experiment [13] deals with T11, ^NhCXCL11-SA^C (I-TAC/hCXCL11 22-94 fused to mouse serum albumin) (human; mouse, UniProt O14625 22-94; P07724 25-608).
T11 construct: soluble form
The protocol:
as §1

Experiment [14] has as its target T3, ^NmCXCL1-SA^C (KC/mCXCL1 25-96 fused to …). As to the method: as §1
The source holds these as a separate data set.

Experiment [15] has as its target T4, ^NmCXCL2-SA^C (MIP-2/mCXCL2 28-100 …). As to the method:
as §1
The source holds these as a separate data set.

In experiment [16] the target is T12, ^NmCXCL3-SA^C (DCIP-1/mCXCL3 28-100 fused to mouse serum albumin) (mouse, UniProt Q6W5C0 28-100; P07724 25-608).
T12 construct: soluble form
As to the method:
as §1

For experiment [17], the target named is T13, ^NmCXCL4-SA^C (Pf-4/mCXCL4 30-105 fused to mouse serum albumin) (mouse, UniProt Q9Z126 30-105; P07724 25-608).
T13 construct: soluble form
As to the method:
as §1

In experiment [18] the target is T5, ^NmCXCL5-SA^C (LIX/mCXCL5 48-118 fused …). The protocol:
as §1
The source holds these as a separate data set.

The target of experiment [19] is T14, ^NmCXCL7-SA^C (Nap-2/mCXCL7 48-113 fused to mouse serum albumin) (mouse).
T14 construct: soluble form
T14 chain: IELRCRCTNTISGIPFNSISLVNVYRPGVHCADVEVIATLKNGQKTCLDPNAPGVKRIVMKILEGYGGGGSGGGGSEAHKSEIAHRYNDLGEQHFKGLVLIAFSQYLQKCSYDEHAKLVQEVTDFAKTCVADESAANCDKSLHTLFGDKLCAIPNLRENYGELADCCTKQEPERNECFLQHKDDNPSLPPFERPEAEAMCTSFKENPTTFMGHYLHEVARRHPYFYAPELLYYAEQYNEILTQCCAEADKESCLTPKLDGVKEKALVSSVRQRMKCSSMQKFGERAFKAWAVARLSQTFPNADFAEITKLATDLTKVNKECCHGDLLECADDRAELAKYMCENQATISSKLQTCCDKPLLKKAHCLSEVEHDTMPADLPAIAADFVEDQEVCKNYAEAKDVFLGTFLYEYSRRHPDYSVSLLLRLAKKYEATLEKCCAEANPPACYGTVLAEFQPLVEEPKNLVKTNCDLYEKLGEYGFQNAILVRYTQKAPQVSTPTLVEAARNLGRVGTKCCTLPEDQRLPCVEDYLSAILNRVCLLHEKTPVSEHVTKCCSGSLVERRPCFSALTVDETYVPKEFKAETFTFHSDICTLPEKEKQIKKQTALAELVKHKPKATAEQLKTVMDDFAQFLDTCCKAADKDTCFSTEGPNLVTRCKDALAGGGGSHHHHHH
The protocol: as §1

For experiment [20], the target named is T15, ^NmCXCL10-SA^C (Ip-10/mCXCL10 22-98 fused to mouse serum albumin) (mouse, UniProt P17515 22-98; P07724 25-608).
T15 construct: soluble form
As to the method: as §1

In experiment [21] the target is T16, ^NmCXCL11-SA^C (I-Tac/mCXCL11 22-100 fused to mouse serum albumin) (mouse, UniProt Q9JHH5 22-100; P07724 25-608).
T16 construct: soluble form
The protocol:
as §1

Experiment [22] has as its target these chemokines (the six ELR+ CXC chemokines recognized by CK138).
For experiment [23], the target named is T17, ^NhCXCL8-SA^C (IL-8/hCXCL8 28-99 fused to mouse serum albumin) (human; mouse, UniProt P10145 28-99; P07724 25-608).
T17 construct: soluble form
The protocol:
as §1

For experiment [24], the target named is T17, ^NhCXCL8-SA^C (IL-8/hCXCL8 28-99 fused …). As to the method:
as §1
The source holds these as a separate data set.

Where two headings read alike, the source gives them in different places.

B1: CK157 (scFv)
scFv: DIQMTQSPSSLSASVGDRVTITCRASQSYGGVAWYQQKPGKAPKLLIYSASYLYSGVPSRFSGSRSGTDFTLTISSLQPEDFATYYCQQPSHLITFGQGTEVEIKGTTAASGSSGGSSSGAEVQLVESGGGLVQPGGSLRLSCAASGSNPYYYGGTHWVRQAPGEELEWVASIGSYPGYTDYADSVKGRFTISADTSKNTAYLQMNSLRAEDTAVYYCARHYYWYDATDYWGQGTLVTVSS
notes: CK2 lineage
As to B1, the fold improvement in affinity compared to the initial CK2 in the experiment with five targets (of CK157) is 20 to 55 fold. Moreover, the Kd worked out at 36.2 nM in [1]; 16.9 nM in experiment [2]; 20.6 nM in [3]; 18.2 nM in experiment [4]; 57.1 nM in experiment [5]; 61.1 nM in [6]. Further, the Kd in [7] amounted to 57.9 nM; in experiment [8], 53.9 nM; in experiment [9], 112 nM; in [10] it was 26.3 nM; in experiment [11], 46.6 nM; in [12], 45.5 nM. Moreover, the Kd came out at 131 nM in experiment [13]; 24.3 nM in experiment [14]; 19.9 nM in experiment [15]; 17.4 nM in experiment [16]; 17.1 nM in experiment [17]; 96.9 nM in experiment [18]. Besides, the dissociation constant Kd was determined as 13.6 nM in experiment [19], 44.4 nM in experiment [20] and 124 nM in experiment [21].

B2: CK129 (scFv)
scFv: DIQMTQSPSPLSASVGDRVTITCRASQYGGYVAWYQQKPGKAPKLLIYGASLLYSGVPSRFSGGRSGTDFTLTISSLQPEDFATYYCQRGHALITFGQGTKVEIEGTTAASGSSGGSSSGAEVQLVESGGGLVQPGGSLRLSCAASGFNISSYGSMHWVRQAPGKGLEWVASIYPYSSSTYYADSVKGRFTISADTSKNTAYLQMNSLRAEDTAVYYCARGYGPWYAYSYFALDYWGQGTLVTVSS
notes: CK4 lineage
B2: the Kd worked out at 0.79 nM in experiment [1]; 0.93 nM in experiment [3]; 1 nM in experiment [6]; 13.9 nM in experiment [7]; 5.7 nM in experiment [8]; 1.1 nM in experiment [14]. Moreover, the “fold increase in affinity (against the parental CK4 clone)” value was determined as 50 fold in experiment [1] and 800 fold in [3].

B3: CK138 (scFv)
scFv: AIQMTRSPSSLSASVGDRVTITCRASQYHDGSAAWYQQKPGKAPKLLIYGASYLYSGVPSRFSGSRSGTDFTLTISSLQPEDFATYYCQQSSYSLITFGQGTKVEIKGTTAASGSSGGSSSGAEVQLVESDGGLVQPGGSLRLSCAASGFNLSYYGMHWVRQAPGKGLEWVAYIASYPGYTSYADSVKGRFTISADTSKNTAYLQMNSLRAEDTAVYYCARSGYSYSPYYSWFSAGMNYWGQGALVTVSS
notes: CK1 lineage
Turning to B3, the fold improvement in affinity relative to the parental CK1 in experiment [22] was 30 to 340 fold. The Kd turned out to be 61.9 nM in [1]; 5.8 nM in [2]; 7.4 nM in [23]; 34.8 nM in [3]; 36.2 nM in experiment [4]; 193 nM in experiment [5]. The dissociation constant (Kd) in experiment [6] was determined as 41.5 nM; in experiment [7] it was 267 nM; in experiment [8], 349 nM; in [9], 167 nM; in [10] it was 5.8 nM; in [11], 153 nM. Moreover, the Kd in experiment [24] amounted to 6.9 nM; in experiment [14], 35.7 nM; in [15], 29.1 nM; in experiment [16], 10.9 nM; in [18], 176 nM; in [20], 500 nM.

(Values after patent publication US20210246199A1 (MIT, published 2021).)
